Experimental data reported in patent EP1602931A1, “SR-A antagonists” (Universiteit Leiden, priority 2004, dated 2005).
Where two headings read alike, the source gives them in different places. No end group written: not given here.

B1: PP1-7 (CWSDAPA) (peptide)
peptide: CWSDAPA
B2: PP1-11 (…) (peptide)
peptide: RFLRCWSDAPA
B3: PP1 (…), synthetic full-length peptide (peptide)
peptide: LSLERFLRCWSDAPA
B4: PP1-13 (…) (peptide)
peptide: LERFLRCWSDAPA

Assays:
[1] = target: T1, immobilized, biotinylated, synthetic, truncated SR-AI (Bos taurus, UniProt P21758); assay: Competition of selected phage pool binding to immobilized synthetic SR-AI; set-up: species or system bovine
T1 sequence (P21758 1-453): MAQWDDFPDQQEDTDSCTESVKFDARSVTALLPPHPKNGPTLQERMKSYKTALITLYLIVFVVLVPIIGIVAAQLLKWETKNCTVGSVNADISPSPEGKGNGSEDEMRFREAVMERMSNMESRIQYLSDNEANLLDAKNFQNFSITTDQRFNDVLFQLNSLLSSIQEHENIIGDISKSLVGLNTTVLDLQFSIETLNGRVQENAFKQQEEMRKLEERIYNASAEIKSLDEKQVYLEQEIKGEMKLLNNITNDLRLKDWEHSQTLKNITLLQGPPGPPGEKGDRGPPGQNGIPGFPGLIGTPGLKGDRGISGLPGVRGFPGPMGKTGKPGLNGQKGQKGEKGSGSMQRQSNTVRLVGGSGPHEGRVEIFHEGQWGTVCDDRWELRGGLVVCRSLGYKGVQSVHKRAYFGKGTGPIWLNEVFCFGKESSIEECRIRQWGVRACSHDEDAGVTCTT
Text: (§1) All peptides were synthesized on an automated peptide synthesizer (9050 Millipore, MA) using standard Fmoc solid-phase peptide synthesis. Crude peptides were purified on a preparative C8 RP-HPLC column (Altech, Deerfield, IL) using a JASCO PU-980 (Tokyo, Japan). Purified peptides were further characterized by LC-MS in Division of Analytical Biosciences, Leiden University. The purity of the peptide, as checked by MALDI-TOF mass spectrometry and RP-HPLC, was at least 70%. Lyophilized peptides were stored at -20°C under nitrogen until further use. Synthetic biotinylated bovine SR-AI was synthesized, purified and characterised as described by Suzuki et al. (Suzuki et al., 1999).
In analogy to the phage selection procedure, 10 µg/ml of streptavidin in coating buffer was incubated overnight at 4°C in a high-binding 96-well plate at 100 µl/well. Wells were washed 3x with assay buffer and incubated for 1 h at 37°C with blocking buffer. Next, wells were incubated for 2h at 37°C with 125 nM biotininylated SR-AI binding peptide (100 µl/well), washed 3x with binding buffer, after which the SR-AI ligands or synthetic SR-AI binding peptides (7, 9, 11, 13, 15 a. a.) were added and the solution (100 µl) was left to incubate for 2h at RT with the enriched phage pool (round 7) at 10^8 cfu. Wells were washed 10x with binding buffer, binding phage were eluted by incubation for 5 min at RT with 100 µl elution buffer, and neutralized with 50 µl neutralization buffer (1M Tris-HCI, pH 8.5). Residual phage binding was calculated from the output ratio.

[2] = target: T2, synthetic biotinylated bovine SR-AI (truncated, comprising the ligand binding pocket) (Bos taurus, UniProt P21758); assay: Competition of enriched phage pool binding to immobilized biotinylated synthetic SR-AI; settings: displacement of enriched phage pool (round 7, 10^8 cfu) from streptavidin-immobilized biotinylated SR-AI peptide; 0-300 µm peptide; 2h at RT; calculated from displacement curves
T2 sequence (P21758 272-343): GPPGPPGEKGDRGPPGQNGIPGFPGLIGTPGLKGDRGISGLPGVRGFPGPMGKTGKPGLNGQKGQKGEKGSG
Text: as §1
10 µg/ml of streptavidin in coating buffer (50 mM NaHC03, pH 9.6) was incubated overnight at 4°C in a high binding 96 well plate (Costar, Coming, UK) at 100 µl/well. Subsequently, wells were washed with assay buffer (20 mM HEPES, 150 mM NaCl, 1mM CaCl2, pH 7.4) and incubated for 1 hour at 37°C with blocking buffer (3% BSA in assay buffer). […]
In analogy to the phage selection procedure, 10 µg/ml of streptavidin in coating buffer was incubated overnight at 4°C in a high-binding 96-well plate at 100 µl/well. […] Residual phage binding was calculated from the output ratio.

[3] = target: Synthetic biotinylated bovine SR-AI (synthetic, truncated SR-AI comprising the ligand binding pocket) (bovine) (UniProt P21758); assay: competition of selective phage pool binding to immobilized biotinylated SR-AI by suc-HSA
[4] = target: Synthetic biotinylated bovine SR-AI (synthetic, truncated SR-AI comprising the ligand binding pocket) (bovine) (UniProt P21758); assay: competition of enriched phage pool binding to immobilized biotinylated SR-AI peptide by synthetic peptide
[5] = target: Synthetic biotinylated bovine SR-AI (synthetic, truncated SR-AI comprising the ligand binding pocket) (bovine) (UniProt P21758); assay: competition of enriched phage pool binding to immobilized biotinylated SR-AI; IC50 against that of poly I
[6] = target: Synthetic biotinylated bovine SR-AI (synthetic, truncated SR-AI comprising the ligand binding pocket) (bovine) (UniProt P21758); assay: competition of enriched phage pool binding to immobilized biotinylated SR-AI peptide by synthetic peptide; remark: listed apart in the source
[7] = synthetic peptides (0-300 µM) competing with binding of enriched phage pool (round 7) to biotinylated SR-AI peptide, calculated from displacement curves, three independent experiments

Molecule	IC50 [1, 7]	IC50 [4]	also measured
LERFLRCWSDAPA [LERFLRCWSDAPA]	72.3 µM		
LSLERFLRCWSDAPA [PP1, LSLERFLRCWSDAPA]	29.1 µM		IC50 [1]: 28.3 µM
LSLERFLRCWSDAPA [PP1]			IC50 [2]: 29 µM
RFLRCWSDAPA [RFLRCWSDAPA]	80.9 µM		
Succinylated human serum albumin (from UniProt P02768 25-609) (ligand)			IC50 [3]: 66 µg/mL
B1		217 µM	
B2		80.9 µM	
B3			fold less potent than poly I [5]: 5 fold; IC50 [6]: 50 µg/mL
B4		72.3 µM	
